Source: publication PMC10578477, “Biochemical and genetic dissection of the RNA-binding surface of the FinO domain of Escherichia coli ProQ”

Legend:
Test in all cases: EMSA
Conditions in all cases: EMSA: 25 mM Tris pH 7.5, 150 mM NaCl, 5% glycerol, 1 mM MgCl2, 1 nM 32P-RNA, 30 min RT; microplates pretreated with 0.0025% BSA; 6% gel in 0.5x TBE at 4 C
[1] = target: T1, ProQ NTD R69A R69A (Escherichia coli) (UniProt P45577)
T1 sequence: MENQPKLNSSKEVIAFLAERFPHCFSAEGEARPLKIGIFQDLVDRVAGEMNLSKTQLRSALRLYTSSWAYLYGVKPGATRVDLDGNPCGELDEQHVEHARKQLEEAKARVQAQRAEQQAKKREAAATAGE

[2] = target: T2, ProQ NTD D41A D41A (Escherichia coli) (UniProt P45577)
T2 sequence: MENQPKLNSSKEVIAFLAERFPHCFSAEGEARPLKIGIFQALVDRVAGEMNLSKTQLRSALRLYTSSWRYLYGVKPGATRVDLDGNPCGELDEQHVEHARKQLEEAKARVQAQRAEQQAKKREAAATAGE

[3] = target: T3, ProQ NTD K54A K54A (Escherichia coli) (UniProt P45577)
T3 sequence: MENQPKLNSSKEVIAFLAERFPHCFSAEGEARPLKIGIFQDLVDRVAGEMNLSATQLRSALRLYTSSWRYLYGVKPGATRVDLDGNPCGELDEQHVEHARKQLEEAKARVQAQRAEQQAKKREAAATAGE

[4] = target: T4, ProQ NTD T65A T65A (Escherichia coli) (UniProt P45577)
T4 sequence: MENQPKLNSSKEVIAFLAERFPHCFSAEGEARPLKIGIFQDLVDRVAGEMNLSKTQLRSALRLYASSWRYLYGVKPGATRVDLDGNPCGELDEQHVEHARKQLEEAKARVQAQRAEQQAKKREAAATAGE

[5] = target: T5, ProQ NTD R58A R58A (Escherichia coli) (UniProt P45577)
T5 sequence: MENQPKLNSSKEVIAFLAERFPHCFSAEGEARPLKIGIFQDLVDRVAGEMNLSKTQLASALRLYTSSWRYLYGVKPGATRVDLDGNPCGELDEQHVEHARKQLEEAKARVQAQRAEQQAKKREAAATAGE

[6] = target: T6, ProQ NTD R62A R62A (Escherichia coli) (UniProt P45577)
T6 sequence: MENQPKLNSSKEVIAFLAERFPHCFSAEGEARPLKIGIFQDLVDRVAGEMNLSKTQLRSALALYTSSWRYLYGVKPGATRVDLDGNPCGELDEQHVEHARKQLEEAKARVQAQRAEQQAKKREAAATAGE

[7] = target: T7, ProQ NTD K35A K35A (Escherichia coli) (UniProt P45577)
T7 sequence: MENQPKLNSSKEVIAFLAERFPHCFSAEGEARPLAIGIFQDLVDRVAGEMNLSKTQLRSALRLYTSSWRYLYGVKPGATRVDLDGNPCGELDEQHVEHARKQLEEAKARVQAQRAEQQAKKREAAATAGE

[8] = target: T8, ProQ NTD R32A R32A (Escherichia coli) (UniProt P45577)
T8 sequence: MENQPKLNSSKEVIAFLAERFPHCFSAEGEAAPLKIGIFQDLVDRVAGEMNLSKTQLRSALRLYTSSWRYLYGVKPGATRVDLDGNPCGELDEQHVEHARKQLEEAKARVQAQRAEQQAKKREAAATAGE

[9] = target: T9, ProQ NTD Y70F Y70F (Escherichia coli) (UniProt P45577)
T9 sequence: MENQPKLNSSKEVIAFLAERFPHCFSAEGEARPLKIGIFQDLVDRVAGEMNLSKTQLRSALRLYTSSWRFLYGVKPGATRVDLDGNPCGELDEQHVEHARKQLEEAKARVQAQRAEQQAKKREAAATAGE

Substance	binding signal [1] [% max bound]	binding signal (fold weaker Kd than WT) [2]	binding signal [3] [% max bound]	binding signal (fold weaker Kd than WT) [4]	Kd [5] [nM]	binding signal [6] [% max bound]	Kd [7] [nM]	binding signal (fold weaker Kd than WT) [8]	binding signal [9] [% max bound]
RybB	< 40	2	< 20	1	> 1000				
SibA		> 5		2	> 1000	25			
SibB		> 5		4	> 1000		> 1000	3	
SibB-5U	> 30								
cspE81-3'		2	30	2	> 1000	< 20			< 20
